Laboratory results taken from the DeepSol protein solubility set.

Assay: soluble on expression in E. coli; label from the status in PepcDB or PDB records

Q: Which “soluble on expression in E. coli” value does the source give for “MGSDKIHHHHHHMAKFDIITIEDKIQQLLEDGFDQASFIYEFLSFYDISKTAITRIRKEQSGEIKNKLYYKTVPTDKSVVAGVAEIEEAIKDKKSQPRYIIVTNFVDFAAKDTKTFDTLQIPFKDLPTYADFFLAWNGVEKVDYAKENPADIKAAERFTRLYDELKKINHFDDRSQEEKEFNLFLIRLLFLLFAEDTEIMKKGIFTNAIKTRSREDGSDLNTLFNQIFASLDIANRLSQENWLQEFPYVNGKLFTDASTDLVFDKKTRKLILEAGELLNWNEINPDILGAMIQTVASSEHRSSSGMHYTSVENIMKVIKPLFLDELTANFQTIVDKINENEDKDITERTRRENRAAYEKELSTLHEHLSKIKFFDPACGSGNFLIITYKELRRLEIRLLKALRELRQDGKIDFFETSKISLNQFYGIELDDFAHEVARLSLWIAEYQMNLEALNEINLQSAFLPLRDAGNITQGNALRLDWDKVVPHTPTDEIYLIGNPPYIGAKIAK” here?
A: not soluble

Q: With “MSLDIIIVGSGAGGLTTASNIKKHDKNAKVTVITSDNYIAYSPCAIPYVIGEEIADFESIIMHTPEDYKAKGIDVIVEAEVLDVVSDENKIIYKKDATETELKYDNLVLATGGTPFVPPIEGVTLGGVFKVRTIEDGRKITEWAKDTKNAVVAGAGAIGIEIAFGLKELGLDVTVVEMVPQVFPRALDPDMAETVQKYLEEQGIKVILEKPVGKIIGNDKVESVLVGEETIPAEMVIMSTGVRSNIELAKRAGCEIGRWAVLTNEKMQTSIPNIYAVGDCVEVIDAITMQNTLSPFGTTAVRQGKVAAKTIANIEAEIKPVLNSMVSKIGKLEIGGTGMTETAAKMNGIEIVLGYSKALTRARYYPGGKPIYIKMVADKNTKKIIGCQIISEERVAERVDAMSVAIFNGMTVEELANQEFCYAPPVSMVIDPIVFAAEDTLDKEGHHHHHH” as the sequence, how does the “soluble on expression in E. coli” value read?
A: soluble

Q: Which “soluble on expression in E. coli” value does the source give for “MSHVSLQEFLKTEPDGTLEVVAEQYNTTLLEVVRNLPSSTVVPGDKFDTVWDTVCEWGNVTTLVHTADVILEFSGELPSGFHRHGYFNLRGKHGMSGHIKAENCTHIALIERKFMGMDTASILFFNKEGSAMLKIFLGRDDHRQLLSEQVSAFHTLAASLKEHA” here?
A: soluble

Q: Which “soluble on expression in E. coli” value does the source give for “MSIYLTAMKNYLEQQNSLNSSKPKALILVAGATGGAQEGFQALERLRESYEIIVVASQAALDLYGEENLKSLTGTAKIYQGKEFKIYDFLKVVTIVFLPVVSSNLVGKLAHGIYDEPLASLIFHAKLAGKPVIGVVDGALPDGDGFKSRGFTNPPPGLVKLINENIEKLRAQEIYLYKGKTILEKLSPYLGPQTAETSVVSSKTGVTLNKRVITREDLLELANQTITVSQKTIITDLAREYAVQNNIKINFAE” here?
A: not soluble

Q: With “MHRTTRIKITELNPHLMCVLCGGYFIDATTIIECLHSFCKTCIVRYLETSKYCPICDVQVHKTRPLLNIRSDKTLQDIVYKLVPGLFKNEMKRRRDFYAAHPSADAAN” as the sequence, how does the “soluble on expression in E. coli” value read?
A: soluble

Q: For “MFYLSELEHSLRVPPHLLNLPLEDAIKSVLQNVFLDKVLADLGLCVSIYDIKSVEGGFVLPGDGAATYKVGLRIVVFRPFVGEVIAAKFKESDANGLRLTLGFFDDIYVPAPLMPKPNRCEPDPYNRKQMIWVWEYGEPKEDYIVDDACQIKFRVESISYPSVPTERAEDAKPFAPMVVTGNMDDDGLGPVSWWDSYEQVDQEE”, which “soluble on expression in E. coli” value is on record?
A: soluble

Q: With “DDEITREPRKVVLHRGSTGLGFNIVGGEDGEGIFISFILAGGPADLSGELRKGDRIISVNSVDLRAASHEQAAAALKNAGQAVTIVAQYRPEEYSRQHA” as the sequence, how does the “soluble on expression in E. coli” value read?
A: soluble

Q: Which “soluble on expression in E. coli” value does the source give for “MSTKADNRHLYLKVIERIKEDIKNGIYTEKEKLPSEFELSKKLGVSRATLREALRILEEEHVIIRRHGVGTFVHSKPLFLSGIEQLNSVTKMIEQANMTPGTIFLSSQVLMPSEDDTKRFHLAEGQELFYLERVRTADGQPIVYCIDKIPMNILPNSFSHQQESMFDLLEKNSGSVISYAVTDIEPIGYHDTISPVLECDPETALLLLKQTHYDQHDKPVLYSLNYFRADKFRFHVLRKRF” here?
A: not soluble

Q: For “MAHHHHHHMSEREHDETPVTAEGSAAAHEGSNMDLNGNESRASYIKTDLGELNMIESMCPKCQETGTTRLMITSIPHFKEIIVSSFECQHCGEVNNEVAFGGTFGPKRVRYELQVRSKQDLDRQVVKSEFATIAIPELELEIPPESQKGNLNTIEGVLEQTYSGLQLQQPLRKIQHPDVYEKIEAFCAKLASFRSGDVPFTLTLDDPAGNSYIEPIHDYYHPTLDPQLTKYEKERTEIDRQLLGIALDYNTERTQEEEKDVEEGQFSDVTQILCDCPACRRPGYIMMHECDIPYFKQTIIMAFKCEYCGYKSNEIKAGGEINAKGLRLVLHVTSEADLKRDVLKSDTATLIIPEVRLELAPGTLGGFFSTVEGTITQVRDQLMNLPQAAFAAGDSADDNSKTMLEFVKELDELLALREEFTFILDDPLGNVYIQNPCSHLPPPDDVDPKLEREEYTRTEEQDEELGILSMRHNEGQAGIEKSEDEADHEGEERNGAAAEEQETQQ”, which “soluble on expression in E. coli” value is on record?
A: soluble

Q: With “MTEQKNKTSLIEFPCTFPLKVMGAVHPEFEQAVLDTVRLHAPDTQAHHITTRPSSKGNYTGATVQVKVENQEQLDNIYRALTSHELVKVVL” as the sequence, how does the “soluble on expression in E. coli” value read?
A: not soluble

Q: For “MTCLSRDWATAQRLVEWALASTRCECFNVDSNFMAGLCLVENPTKQHYSFEVRKQVVDRFNAGQSKMDLAREFGLSSDQLVSSWVRAWRAGGDEALRPKPKGRPKGSASSKPLTEEDRLRREVEKLRAENAYLKKLRDLRNQRRS”, which “soluble on expression in E. coli” value is on record?
A: not soluble

Q: For “MKKVAVLLAPGFEEAEAIVTLDILRRLHIDVETLACAESRAVVSYHDIPMVADSTLSERQQALFDAVVLPGGPQGSANLAANPAVIAFVARHDAAGKLICPICSAAARVLGAHGLLKGRRYVCSGDLWKAVPEGVYVDAPVVEDGNLISGKGLGHVFDFALTLSARLLGDDAPVREQAEHIYYPW”, which “soluble on expression in E. coli” value is on record?
A: not soluble

Q: For “MSLATPDRLTIVNQYVDNVLTKAGDHYHGQSPTPLLADGVDPRTGKQMEWIFPDGRHAVLSNFSAQQNLMRVLVGLSNLSGNPSYKQRAEAIVKYHFQHYQDESGLLIWGGHRFVDLKTLQPEGPSEKEMVHELKNAYPYYDLMFSVDKDATARFIRGFWNAHVYDWKIMETSRHGKYGQKIGALWQSPFEQQPPFFATKGLSFLNAGNDLIYSASLLYKYNKEDGALVWAKRLAQQYVLPRDKATGLGVYQFTQALKRDETTDDADTHSKYGDRAQRQFGPEFGPTALEGNMMLKGRTSTIYSENALMQLQLGKDLGAEGKELLTWTTDGLKAFAKYAYNESDNTFRPMLANGKDLSNYVLPRDGYYGKKGTVIKPYPADNSFLLSYARAYTVLPDAELWRVARGIARAQGLGELGSAPGKDVKVDLATKNNDPYALFALLDLYQASKVKDYLSLAEKVGDNIISTRYQNGFFMAEPNRQYADVDTIEPYALLALEAAVRNQPQSVAPFLNGAGFTEGGYRMEDGSTRVSTRDNEIFLLNVGETLKPNNKKEGHHHHHH”, which “soluble on expression in E. coli” value is on record?
A: soluble

Q: For “MSIQLNGINCFYGAHQALFDITLDCPEGETLVLLGPSGAGKSSLLRVLNLLEMPRSGTLTIAGNHFDFTKTPSDKAIRELRQNVGMVFQQYNLWPHLTVVQNLIEAPCRVLGLTKDQALARAEKLLERLRLKPYSDRYPLHLSGGQQQRVAIARALMMEPQVLLFDEPTAALDPEITAQIVSIIHELAETNITQVIVTHEVEVARKTASRVIYMENGHIVEHGDAGCFAHPQTEAFKNYLSH”, which “soluble on expression in E. coli” value is on record?
A: not soluble

Q: For “MGSDKIHHHHHHMRLTILGSSGSVPAPGNPASGYLLTSPDAPAVIMDMGPGVLAAVQEIQDPADAHVIFSHLHTDHCADFASLMVWRRFHPTLAAKSRNLLFGPEDTPNRLGRLSSDEPDGVDDMSDTFAFDAWEERKPELIDNFTVTPFRVVHPIETYALRVEEHRTGASITYSGDSAYTEALIDAARNVDIFLCEATWGTSCDDKAPGMHMCGQDAGRIAAAAGVKKLIITHVPPWIDAEATVAAAAEHFDGPIELARSGMVIEF”, which “soluble on expression in E. coli” value is on record?
A: not soluble

Q: With “MGSDKIHHHHHHLDPFASPQNLDKELRSLLAQASSNLCDWFAESASQGPMPYSFELPEVYPAKEGVSNDVLLSELQLLMDGSYRPSHPGSLAHLDPPPLSASIAGELICAGLNNNLLADELSPSLSSLERNLCKWFCHKLGLGDLSGGVAASGGSLSNLMALVMARNNSGLETDPKAVFFASHDCHVSFSKAFRIMGLKQESLQKVSTDENGALNISSLRTSLNKIKSQGKKCFAVVATAGTTVRGAIDPLSEIAKFCKKENVWFHVDGSIGGIYGLSEMTSEIVQGLGFADSLTINPQKLLGIPKTSSLLLVANKNHLSSTFSTGLPYVEPISGNDFHGGELGIQGTRSAETLKLWIGLRQLGEEGIEKILLGSIKRRCYLESIIDRSKFKIISGPLHLLAFTPINYSSSQSSDWSLKTRNSLLANKFMLSRPMYGHRYYLKAVMGNPNTKFDDLKMLANLINHSIS” as the sequence, how does the “soluble on expression in E. coli” value read?
A: not soluble

Q: For “MGSDKIHHHHHHMIKILVDNTAYKKFFAQHGFSALIEINNKRILFDAGQNSITLRENLRLFNEKEGFDYIVLSHGHYDHCDGLKYVIENDLINGKVIAHKDAFLDKYAGNRYIGIDEEIKEYLLKKADLEIIEEPYKIDKDIIVSGYVPREYEYEMEEFQCIKDGKRVKDEVNDDMFLIAKGILITGCSHSGIINVVEYGKKLSEIKGVLGGFHLVGVSDNYLNRIVDYFKSQDFWIMPMHCTGFKALTKLSQLNNFVYGHVGKIIGI”, which “soluble on expression in E. coli” value is on record?
A: not soluble

Q: For “MGSDKIHHHHHHMLVQGFEEDLAFLGWIALTLGSNPLVPYVPTRPELIPKILELLDLKEDDVFYDLGCGDGRVVIEAVKKTRVKKAVCVETRDDLVKEARKKAEEEGVSDRIEFINNDFFKTPLKDATAVYMYLLTSVNESLKPKLARELRDGTRIVTLDFPIPGWKPVKVETATTGWQRSLYLYVKGVSDRA”, which “soluble on expression in E. coli” value is on record?
A: not soluble

Q: Which “soluble on expression in E. coli” value does the source give for “MAAGSMDGIFRNIFEGCISSCDSSIQRRPYHKNCGCALHERSRGGGSATPCRHGRSEVVMFPIQRSWSEGNSLALHLASSSSSSNLQSLSSSSSISTLASLSSTVSDIDSPI” here?
A: soluble

Q: Which “soluble on expression in E. coli” value does the source give for “MGSDKIHHHHHHMLDAQNVSVGYDEKTPIIQQLSFQVHKGEIFGILGPNGSGKTTLLKAVSGLLSPSEGTITLHGKAIADYHSKELAQKMAVLPQTADTAFAYKVKEVVALGRYPHQKGWLASESQEDERVIREAMEQTDTWKFRNKPLQTLSGGERQRALLARALCQEPDLLLLDEPTNHLDISHQMQLLDALKDWTRTRQLTVVAILHDLNMASLYCDRVLLLNEGRMVDLNSPRQVMTEHQLANVYETKIRRNEHPTIPRPLVTFEPAAIRSKPSSPISELEVFTSEQLIKVTSSIRWKTLSSAVLGAGFKWHQTFVNRHVSKDYYCDDVEREFQTFLSNVGVDGTDALGMMTAAILEDVAITEATYESFKVRVFVTAGISNAVDAAKAHLRKRNEATVGTINTWVFIEGTLPDAAYVQALMTATEAKGRALAEKEILDPVTGTLATGTSTDSVMIASSQTGTYFPYAGTITPLGQAIGKLVYDATIQAVTDNEKRRLER” here?
A: not soluble

Q: Which “soluble on expression in E. coli” value does the source give for “MNFVQPIRDPEQIQQLKDYFKEKSLRNYILFIMGINTGLRISDILKLKVGDVKGSHISMREEKTGKQKRIQITAALKRELKWFIEEREDNEYLLQSRQGRNRPIGRSMAYKILSGAAADFGLDEIGTHTLRKTYGYHMYMQTKNIALLMEIFNHSSEKVTLRYIGVNQDAMDKAMTRFKI” here?
A: not soluble
